Usually Kd stands for the concentration at which binding is half-saturated.

Sequences and labels used below:
T1: biotinylated human DLL3 protein expressed as a human IgG1 fusion protein (human, UniProt Q9NYJ7 27-492, limits assumed, biotinylated)
T1 sequence: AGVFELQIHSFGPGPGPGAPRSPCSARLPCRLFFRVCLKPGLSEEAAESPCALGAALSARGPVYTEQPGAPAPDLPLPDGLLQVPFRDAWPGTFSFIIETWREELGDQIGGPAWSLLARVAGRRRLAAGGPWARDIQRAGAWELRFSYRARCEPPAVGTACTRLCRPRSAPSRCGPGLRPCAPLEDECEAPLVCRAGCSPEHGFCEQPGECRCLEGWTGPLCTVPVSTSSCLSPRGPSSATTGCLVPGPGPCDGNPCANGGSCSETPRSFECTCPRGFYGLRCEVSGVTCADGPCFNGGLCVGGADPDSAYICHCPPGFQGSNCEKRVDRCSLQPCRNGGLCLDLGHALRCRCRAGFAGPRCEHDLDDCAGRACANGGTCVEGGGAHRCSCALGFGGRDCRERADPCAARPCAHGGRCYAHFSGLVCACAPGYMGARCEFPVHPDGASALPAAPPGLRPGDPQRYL

B1: 1G04 anti-DLL3 trispecific protein (other)
chain: EVQLVESGGGLVQPGGSLTLSCVASGSTSSTNAMGWYRRAPGKQRELVAGISSDGSKVLADSVKGRFTISRDNAKNSVYLQMNSLRAEDTAVYYCYYFRTVNLSSMRYWGQGTLVTVSS
notes: not shown: linker 1808, anti-albumin sdAb, linker 1808, anti-CD3 fragment, His6 1819
B2: 1G09 anti-DLL3 trispecific protein (other)
chain: EVQLVESGGGLVQPGGSLTLSCVASGSTSSINAMGWYRRAPGKQRELVAGISSDGSKVYADSVKGRFTISRDNAKNSVYLQMNSLRAEDTAVYYCYYFRTVSKSSMRYWGQGTLVTVSS
notes: as for B1
B3: 1G05 anti-DLL3 trispecific protein (other)
chain: EVQLVESGGGLVQPGGSLTLSCVASGSTSSINAIGWYRRAPGKQRELVAGISSDGSKYYADSVKGRFTISRDNAKNSVYLQMNSLRAEDTAVYYCYYFRTVTGSSMRYWGQGTLVTVSS
notes: as for B1
B4: 2B011 anti-DLL3 trispecific protein (other)
chain: EVQLVESGGGLVQPGGSLTLSCVASGNTSSINAMGWYRRAPGKQRELVAGISSDGSRVYADSVKGRFTISRDNAKNSVYLQMNSLRAEDTAVYYCYYFRTVSGSSMRSWGQGTLVTVSS
notes: as for B1
B5: 2A09 anti-DLL3 trispecific protein (other)
chain: EVQLVESGGGLVQPGGSLTLSCVASGSTSSRNAMGWYRRAPGKQRELVAGISSNGSKVYSDSVKGRFTISRDNAKNSVYLQMNSLRAEDTAVYYCYYFRTVSGSSMSYWGQGTLVTVSS
notes: as for B1
B6: 2A08 anti-DLL3 trispecific protein (other)
chain: EVQLVESGGGLVQPGGSLTLSCVASGSTKSINAMGWYRRAPGKQRELVAGISSDGSKVYRDSVKGRFTISRDNAKNSVYLQMNSLRAEDTAVYYCYYFRTSSGSSMRYWGQGTLVTVSS
notes: as for B1
B7: 1H010 anti-DLL3 trispecific protein (other)
chain: EVQLVESGGGLVQPGGSLTLSCVASGSTRSINAMGWYRRAPGKQRELVAGISSDGSKVYNDSVKGRFTISRDNAKNSVYLQMNSLRAEDTAVYYCYYFRTVSGSSMRFWGQGTLVTVSS
notes: as for B1
B8: 1H07 anti-DLL3 trispecific protein (other)
chain: EVQLVESGGGLVQPGGSLTLSCVASGSTSSINAFGWYRRAPGKQRELVAGISSDGSKVYSDSVKGRFTISRDNAKNSVYLQMNSLRAEDTAVYYCYYFRTVSGSSMRYWGQGTLVTVSS
notes: as for B1
B9: 1G06 anti-DLL3 trispecific protein (other)
chain: EVQLVESGGGLVQPGGSLTLSCVASGSTSSINAIGWYRRAPGKQRELVAGISSDGSKVYAVSVKGRFTISRDNAKNSVYLQMNSLRAEDTAVYYCYYFRKVSGSSARYWGQGTLVTVSS
notes: as for B1
B10: 2B05 anti-DLL3 trispecific protein (other)
chain: EVQLVESGGGLVQPGGSLTLSCVASGTTSSINAMGWYRRAPGKQRELVAGISSDGTKVYADSVKGRFTISRDNAKNSVYLQMNSLRAEDTAVYYCYYFHTVSGSSMRYWGQGTLVTVSS
notes: as for B1
B11: 2C02 anti-DLL3 trispecific protein (other)
chain: EVQLVESGGGLVQPGGSLTLSCVASGSTSSINAVGWYRRAPGKQRELVAGISSDGSKVYVDSVKGRFTISRDNAKNSVYLQMNSLRAEDTAVYYCYYFRTVYGSSMRYWGQGTLVTVSS
notes: as for B1
B12: 2A01 anti-DLL3 trispecific protein (other)
chain: EVQLVESGGGLVQPGGSLTLSCVASGSTSSINAMGWYRRAPGKQRELVAGISSDGSKVVADSVKGRFTISRDNAKNSVYLQMNSLRAEDTAVYYCYYFRTLSGSSMRYWGQGTLVTVSS
notes: as for B1
B13: 1H01 anti-DLL3 trispecific protein (other)
chain: EVQLVESGGGLVQPGGSLTLSCVASGSTSSINAMAWYRRAPGKQRELAAGISSDNSKVYADSVKGRFTISRDNAKNSVYLQMNSLRAEDTAVYYCYYFRTRSGSSMRYWGQGTLVTVSS
notes: as for B1
B14: 2B03 anti-DLL3 trispecific protein (other)
chain: EVQLVESGGGLVQPGGSLTLSCVASGSTSSINAMGWYRRAPGKQRELVAGISSDGSLVYADSVKGRFTISRDNAKNSVYLQMNSLRAEDTAVYYCYYFTTVSGSSMRYWGQGTLVTVSS
notes: as for B1
B15: 2A06 anti-DLL3 trispecific protein (other)
chain: EVQLVESGGGLVQPGGSLTLSCVASGSTSSRNAMGWYRRAPGKQRELVAGISSDGSKVTADSVKGRFTISRDNAKNSVYLQMNSLRAEDTAVYYCYYFRTRSGSSMRYWGQGTLVTVSS
notes: as for B1
B16: 2B07 anti-DLL3 trispecific protein (other)
chain: EVQLVESGGGLVQPGGSLTLSCVASGSTSSINAFGWYRRAPGKQRELVAGISSDGSKVYADSVKGRFTISRDNAKNSVYLQMNSLRAEDTAVYYCYYFRTVRGSSMRYWGQGTLVTVSS
notes: as for B1
B17: 2B02 anti-DLL3 trispecific protein (other)
chain: EVQLVESGGGLVQPGGSLTLSCVASGSTSSINAMAWYRRAPGKQRELVAGISSDGSKVYADSVKGRFTISRDNAKNSVYLQMNSLRAEDTAVYYCYYFRTKSGSSMRYWGQGTLVTVSS
notes: as for B1
B18: 1H02 anti-DLL3 trispecific protein (other)
chain: EVQLVESGGGLVQPGGSLTLSCVASGSKSSINAMGWYRRAPGKQRELAAGISSDGSKVYAQSVKGRFTISRDNAKNSVYLQMNSLRAEDTAVYYCYYFRTSSGSSMRYWGQGTLVTVSS
notes: as for B1
B19: 2A011 anti-DLL3 trispecific protein (other)
chain: EVQLVESGGGLVQPGGSLTLSCVASGSTSSINAIGWYRRAPGKQRELVAGISSDGSKVYSDSVKGRFTISRDNAKNSVYLQMNSLRAEDTAVYYCYYFRPVSGSSMRYWGQGTLVTVSS
notes: as for B1
B20: 1G07 anti-DLL3 trispecific protein (other)
chain: EVQLVESGGGLVQPGGSLTLSCVASGSTSSINAMGWYRRAPGKQRELVAGISSDGSKVVADSVKGRFTISRDNAKNSVYLQMNSLRAEDTAVYYCYYFRTYSGSSMRYWGQGTLVTVSS
notes: as for B1
B21: 2A05 anti-DLL3 trispecific protein (other)
chain: EVQLVESGGGLVQPGGSLTLSCVASGRTSSINAMGWYRRAPGKQRELVAGISSDGSKVYNDSVKGRFTISRDNAKNSVYLQMNSLRAEDTAVYYCYYFRTVSGTSMRYWGQGTLVTVSS
notes: as for B1
B22: 2C01 anti-DLL3 trispecific protein (other)
chain: EVQLVESGGGLVQPGGSLTLSCVASGSTASINAMGWYRRAPGKQRELVAGISSDGSKVYADSVKGRFTISRDNAKNSVYLQMNSLRAEDTAVYYCYYFRYVSGSSMRYWGQGTLVTVSS
notes: as for B1
B23: 2B012 anti-DLL3 trispecific protein (other)
chain: EVQLVESGGGLVQPGGSLTLSCVASGTTSSINAMGWYRRAPGKQRELVAGISSDGSKVYNDSVKGRFTISRDNAKNSVYLQMNSLRAEDTAVYYCYYFRTVRGSSMRYWGQGTLVTVSS
notes: as for B1
B24: 1G011 anti-DLL3 trispecific protein (other)
chain: EVQLVESGGGLVQPGGSLTLSCVASGSTSSINAMAWYRRAPGKQRELVAGISSDGSKVYADSVKGRFTISRDNAKNSVYLQMNSLRAEDTAVYYCYYFKTVSGSSMRYWGQGTLVTVSS
notes: as for B1
B25: 2A03 anti-DLL3 trispecific protein (other)
chain: EVQLVESGGGLVQPGGSLTLSCVASGTTSSINAMGWYRRAPGKQRELVAGISSDGSKVYGDSVKGRFTISRDNAKNSVYLQMNSLRAEDTAVYYCYYFRTVSGSAMRYWGQGTLVTVSS
notes: as for B1
B26: 1H08 anti-DLL3 trispecific protein (other)
chain: EVQLVESGGGLVQPGGSLTLSCVASGSTFSINAMGWYRRAPGKQRELVAGISSDGSKVLADSVKGRFTISRDNAKNSVYLQMNSLRAEDTAVYYCYYFRLVSGSSMRYWGQGTLVTVSS
notes: as for B1
B27: 1H011 anti-DLL3 trispecific protein (other)
chain: EVQLVESGGGLVQPGGSLTLSCVASGSTSSINAIGWYRRAPGKQRELVAGISSDGSKVYNDSVKGRFTISRDNAKNSVYLQMNSLRAEDTAVYYCYYFRTQSGSSMRYWGQGTLVTVSS
notes: as for B1
B28: 2B010 anti-DLL3 trispecific protein (other)
chain: EVQLVESGGGLVQPGGSLTLSCVASGSTSSRNAMGWYRRAPGKQRELVAGISSDGSKLYLDSVKGRFTISRDNAKNSVYLQMNSLRAEDTAVYYCYYFRTVLGSSMRYWGQGTLVTVSS
notes: as for B1
B29: 2B01 anti-DLL3 trispecific protein (other)
chain: EVQLVESGGGLVQPGGSLTLSCVASGSTSLINAMGWYRRAPGKQRELVAGISSDGSKVYADSVKGRFTISRDNAKNSVYLQMNSLRAEDTAVYYCYYFRHVSGSSMRYWGQGTLVTVSS
notes: as for B1
B30: 1H06 anti-DLL3 trispecific protein (other)
chain: EVQLVESGGGLVQPGGSLTLSCVASGTTSSINAMGWYRRAPGKQRELVAGISSDGSKVYVDSVKGRFTISRDNAKNSVYLQMNSLRAEDTAVYYCYYFRFLSGSSMRYWGQGTLVTVSS
notes: as for B1

The experiment deals with T1, biotinylated human DLL3 protein …. Nature of the experiment: Octet BLI, single 50 nM. How it is done:
Using the conditioned medium with known concentrations of the anti-DLL3 trispecific proteins, the binding affinities of the anti-DLL3 trispecific proteins toward human DLL3 protein were measured using a method where biotinylated version of human DLL3 protein were expressed as a human IgG1 fusion protein, and the binding affinity measurement was carried out in an Octet instrument with streptavidin tips.
B1 returned a dissociation constant Kd of 11 nM.
The molecule B2 returned a Kd of 10 nM.
Then B3, with 14 nM.
B4 registered a dissociation constant Kd of 11 nM. The Kd values of the last two molecules are within 1.5-fold of each other.
Molecule B5 gave a Kd of 10 nM.
Then B6, with 7.7 nM.
As for B7, the Kd was determined as 8.4 nM.
The result for B8 reads 6.2 nM.
Then B9, with 26 nM; and B10, with 7.4 nM; and B11, with 4.1 nM.
The molecule B12 gave a Kd of 8 nM.
In the case of B13, the Kd came out at 5.7 nM.
Then B14, with 7.6 nM.
Then B15, with 8.9 nM.
The result for B16 reads 5.7 nM.
Turning to B17, the Kd was determined as 6.6 nM. The Kd values of the last two molecules are within 1.5-fold of each other.
Then B18, with 10 nM; and B19, with 4 nM.
The result for B20 reads 8.3 nM; that for B21, 8.9 nM.
Then B22, with 12 nM.
Molecule B23 had a Kd of 7.3 nM.
Molecule B24 showed a dissociation constant Kd of 6.8 nM. This Kd and that of the molecule before are within 1.5-fold of each other.
The result for B25 reads 8.2 nM; that for B26, 17 nM; that for B27, 6.2 nM.
The result for B28 reads 10 nM; that for B29, 10 nM.
B30 showed a Kd of 14 nM. This Kd and that of the molecule before are within 1.5-fold of each other.

The record behind these values is patent US20240141072A1 (published 2024).
